Assay results as given in paper PMC10830565 (2024).

Columns and labels:
GST-BCL7A-YFP = molecular target: T1, GST-BCL7A-YFP (Arabidopsis thaliana, UniProt F4JL58); test: GST pull-down
T1 chain: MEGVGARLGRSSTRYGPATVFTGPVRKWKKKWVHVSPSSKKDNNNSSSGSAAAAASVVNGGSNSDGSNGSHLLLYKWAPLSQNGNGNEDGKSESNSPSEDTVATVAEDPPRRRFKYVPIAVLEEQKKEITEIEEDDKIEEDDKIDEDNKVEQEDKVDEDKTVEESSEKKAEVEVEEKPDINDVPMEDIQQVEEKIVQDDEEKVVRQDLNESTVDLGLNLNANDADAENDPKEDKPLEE

GST-BCL7B-CFP = molecular target: T2, GST-BCL7B-CFP (Arabidopsis thaliana, UniProt Q9FLP2); test: GST pull-down
T2 chain: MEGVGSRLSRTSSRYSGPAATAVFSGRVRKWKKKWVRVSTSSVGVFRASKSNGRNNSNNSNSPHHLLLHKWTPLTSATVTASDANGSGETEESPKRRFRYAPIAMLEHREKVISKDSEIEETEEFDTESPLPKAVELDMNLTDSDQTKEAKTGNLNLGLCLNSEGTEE

binding result (GST-BCL7A-YFP): binds
binding result (GST-BCL7B-CFP): binds
B1: MBP-BRM (422-952)-HIS (protein)
chain: MQQPRQLNTPTPNLVAPSDTGPLSNSSLQSGQGTQQAQQRSGFTKQQLHVLKAQILAFRRLKKGEGSLPPELLQAISPPPLELQTQRQISPAIGKVQDRSSDKTGEDQARSLECGKESQAAASSNGPIFSKEEDNVGDTEVALTTGHSQLFQNLGKEATSTDVATKEEQQTDVFPVKSDQGADSSTQKNPRSDSTADKGKAVASDGSQSKVPPQANSPQPPKDTASARKYYGPLFDFPFFTRKLDSYGSATANANNNLTLAYDIKDLICEEGAEFLSKKRTDSLKKINGLLAKNLERKRIRPDLVLRLQIEEKKLRLSDLQSRVREEVDRQQQEIMSMPDRPYRKFVRLCERQRLEMNRQVLANQKAVREKQLKTIFQWRKKLLEAHWAIRDARTARNRGVAKYHEKMLREFSKRKDDGRNKRMEALKNNDVERYREMLLEQQTNMPGDAAERYAVLSSFLTQTEDYLHKLGGKITATKNQQEVEEAANAAAVAARLQGLSEEEVRAAATCAREEVVIRNRFTEMNAPKEN
